From patent US20140087995A1 (published 2014) come the findings set out here.

Numbered stars: 1 amine (or outer) side, 2 acyl side, 3 side chain; on linkers, the order of the positions; unused ones are H or OH. Bridge positions count the residues as written; N and C are the ends. Square brackets hold non-standard residues; d marks the D form. Side chains are listed from the residue outwards. Ends that are not written are not given here. * marks the point of attachment. C20 diacid = O=C(O)CCCCCCCCCCCCCCCCCCC(=O)*; γGlu = O=C(O)[C@H](CCC(=O)[*:2])N[*:1]

The target of test [1] is T1, human amylin receptor (amylin 3(a) receptor: human calcitonin receptor co-expressed with RAMP-3) (human, UniProt P30988 25-474; O60896 24-148, limits assumed).
T1 construct: whole, on cells; also called hAmylin-R; hAmylinR
T1 sequence (looked up) 1: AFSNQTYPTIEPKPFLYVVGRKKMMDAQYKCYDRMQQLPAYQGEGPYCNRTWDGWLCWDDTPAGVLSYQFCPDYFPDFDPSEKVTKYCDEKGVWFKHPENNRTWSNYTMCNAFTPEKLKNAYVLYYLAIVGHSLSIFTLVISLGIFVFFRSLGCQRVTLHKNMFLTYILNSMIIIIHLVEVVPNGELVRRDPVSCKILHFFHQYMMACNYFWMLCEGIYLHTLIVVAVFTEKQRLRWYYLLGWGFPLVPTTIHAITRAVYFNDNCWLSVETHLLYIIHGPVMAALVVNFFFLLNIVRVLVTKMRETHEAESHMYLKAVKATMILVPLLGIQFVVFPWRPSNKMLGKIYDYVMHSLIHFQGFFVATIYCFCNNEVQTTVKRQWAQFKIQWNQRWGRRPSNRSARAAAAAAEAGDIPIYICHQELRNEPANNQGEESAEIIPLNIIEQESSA
T1 sequence (looked up) 2: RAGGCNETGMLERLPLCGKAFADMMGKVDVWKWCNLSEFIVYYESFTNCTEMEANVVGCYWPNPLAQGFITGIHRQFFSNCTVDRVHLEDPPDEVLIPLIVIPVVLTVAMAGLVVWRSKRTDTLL
The test is described as follows: SPA competition binding, membranes of Amylin 3(a)/CRE-luc BHK cells, displacement of 125I-rat amylin (Assay V). An outline of the steps: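 One-site competition analysis of SPA counts yielded IC₅₀ as a measure of affinity. Membranes were at 35 ng/μL final; incubation was 120 min at 25° C, pH 7.4.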

The target of test [2] is T2, rat calcitonin receptor (rat, UniProt P32214 25-516).
T2 construct: whole, on cells; Used as membranes prepared from transiently transfected BHK tk'ts 13 cells (Assay VIII); also called rCTR; rat calcitonin (a) receptor
T2 sequence (looked up): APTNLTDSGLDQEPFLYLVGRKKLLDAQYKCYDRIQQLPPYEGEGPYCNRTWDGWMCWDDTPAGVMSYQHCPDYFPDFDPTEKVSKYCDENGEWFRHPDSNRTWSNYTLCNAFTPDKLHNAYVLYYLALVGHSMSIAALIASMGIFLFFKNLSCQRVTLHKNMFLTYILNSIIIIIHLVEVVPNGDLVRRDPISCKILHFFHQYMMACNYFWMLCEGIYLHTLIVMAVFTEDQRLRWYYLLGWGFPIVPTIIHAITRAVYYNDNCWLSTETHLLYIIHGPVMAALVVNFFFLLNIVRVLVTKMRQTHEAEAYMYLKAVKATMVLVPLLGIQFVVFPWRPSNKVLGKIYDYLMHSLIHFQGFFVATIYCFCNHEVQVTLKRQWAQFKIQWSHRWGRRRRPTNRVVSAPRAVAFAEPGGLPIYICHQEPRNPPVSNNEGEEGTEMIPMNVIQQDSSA
The test is described as follows: SPA competition binding, displacement of 125I-calcitonin from membranes of BHK tk'ts 13 cells with rat calcitonin receptor (Assay VIII).

Test [3] concerns the target T3, rat amylin receptor (rat calcitonin receptor + rat RAMP 3) (rat, UniProt P32214 25-516; Q9JJ73 23-147).
T3 construct: whole, on cells; Used as membranes prepared from transiently transfected BHK tk'ts 13 cells (Assay VI); also called rAmylin-R; rat amylin 3(a) receptor
T3 sequence (looked up) 1: T2 sequence (looked up)
T3 sequence (looked up) 2: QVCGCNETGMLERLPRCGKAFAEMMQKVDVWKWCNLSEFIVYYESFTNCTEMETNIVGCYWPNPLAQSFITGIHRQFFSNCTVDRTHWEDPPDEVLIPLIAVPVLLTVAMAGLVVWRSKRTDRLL
In words: SPA competition binding, displacement of 125I-rat amylin from membranes of BHK tk'ts 13 cells with rat calcitonin receptor + rat RAMP 3 (Assay VI).

B1: N^ε1-[(4S)-4-carboxy-4-[[(4S)-4-carboxy-4-(19-carboxynonadecanoylamino)butanoyl]amino]butanoyl]-[Glu14,Arg17,Pro21,Pro27,Pro34,Glu35,Pro37]-h-amylin (peptide)
peptide: K([γGlu-γGlu-C20 diacid])CNTATCATQRLAEFLRHSSPNFGAIPSSTNVGPETP-NH2
modifications: disulfide 2-7; N-terminus assumed
SMILES: CC[C@H](C)[C@H](NC(=O)[C@H](C)NC(=O)CNC(=O)[C@H](Cc1ccccc1)NC(=O)[C@H](CC(N)=O)NC(=O)[C@@H]1CCCN1C(=O)[C@H](CO)NC(=O)[C@H](CO)NC(=O)[C@H](Cc1c[nH]cn1)NC(=O)[C@H](CCCNC(=N)N)NC(=O)[C@H](CC(C)C)NC(=O)[C@H](Cc1ccccc1)NC(=O)[C@H](CCC(=O)O)NC(=O)[C@H](C)NC(=O)[C@H](CC(C)C)NC(=O)[C@H](CCCNC(=N)N)NC(=O)[C@H](CCC(N)=O)NC(=O)[C@@H](NC(=O)[C@H](C)NC(=O)[C@@H]1CSSC[C@H](NC(=O)[C@@H](N)CCCCNC(=O)CC[C@H](NC(=O)CC[C@H](NC(=O)CCCCCCCCCCCCCCCCCCC(=O)O)C(=O)O)C(=O)O)C(=O)N[C@@H](CC(N)=O)C(=O)N[C@@H]([C@@H](C)O)C(=O)N[C@@H](C)C(=O)N[C@@H]([C@@H](C)O)C(=O)N1)[C@@H](C)O)C(=O)N1CCC[C@H]1C(=O)N[C@@H](CO)C(=O)N[C@@H](CO)C(=O)N[C@H](C(=O)N[C@@H](CC(N)=O)C(=O)N[C@H](C(=O)NCC(=O)N1CCC[C@H]1C(=O)N[C@@H](CCC(=O)O)C(=O)N[C@H](C(=O)N1CCC[C@H]1C(N)=O)[C@@H](C)O)C(C)C)[C@@H](C)O
For B1, the IC50 in test [1] was 0.533 nM.

B2: N^ε1-[(4S)-4-carboxy-4-[[(4S)-4-carboxy-4-(19-carboxynonadecanoylamino)butanoyl]amino]butanoyl]-[D-Asp14,Arg17,Pro21,Pro27,Arg35]-h-amylin (peptide)
peptide: K([γGlu-γGlu-C20 diacid])CNTATCATQRLA[dD]FLRHSSPNFGAIPSSTNVGSRTY-NH2
modifications: disulfide 2-7 (inferred)
notes: Residue 14 is the D-isomer of Asp
B2: the IC50 is 536 nM in test [2] and 1.69 nM in test [3].
